Assays:
[1] = biological target: T1, p40 peptide amino acids 1-9 (MLYLENNAQ) (human); assay: epitope mapping, peptide ELISA and dot blot
T1 peptide: MLYLENNAQ
From the text: (§1) In order to determine the peptide sequence of p40 that is recognized by anti-p40 antibodies such as BC28, epitope mapping may be conducted perhaps using two assays: direct ELISA and even dot blot. In an ELISA assay, the sensitivity and specificity of the anti-p40 [BC28] antibody may be determined by measuring the antibody titer at about 1:500 and about 1:1000. Overlapping peptides at a length of about 15 amino acids each, covering the human p40 protein sequence from perhaps 1 to 17 amino acids, may be used to determine a sequence of BC28 binding.

[2] = biological target: T2, p40 peptide amino acids 1-17 (MLYLENNAQTQFSEPQY) (human); assay: epitope mapping, peptide ELISA and dot blot
T2 peptide: MLYLENNAQTQFSEPQY
From the text: as §1

binding result [1]: binds
binding result [2]: binds
B1: mouse monoclonal anti-p40 antibody BC28 (antibody, mouse IgG1, V domains shown)
VH: GVKLVESGGGFVKPGGSLTLSCAASGFTFSIYAMSWVRQTPEKRLEWVTSISSGDDIFYPDNLKGQFTISRDNARNILYLQMSSLRSEDTAIYYCVRHGYNATDYWGQGTSVTVSS
VL: DVLMTQTPLSLPVSLGDQASISCRSSQSIVYSNGNTYLEWYLQKPGQSPKLLIYKVSNRFSGVPDRFSGSGSGTDFTLKISRVEAEDLGVYYCFQGSHVPFTFGSGTKLEIK
notes: also called p40 [BC28]; p40 (M)

— patent US20160009795A1 (BIOCARE MEDICAL, published 2016)
